In data set [1] the test system is template containing a single 5-nitroindole. Kind of data set: 5NI replication assay. The format is biochemical. Conditions: primer extension, 60° C. The procedure: Primer 26 was ^32P-labeled and annealed to template primer 27 (containing a single 5-nitroindole) in 1× Taq buffer, 0.1 or 0.5 U of the polymerase was added and reactions incubated at 60° C. for 15 mins, after which 40 μM of each dNTP were added and incubation at 60° C. continued for various times.

A short description of data set [2]: Catalytic efficiency kcat/Km. The data set is classed as biochemical.

B1: M1: Taq mutant G84A, D144G, K314R, E520G, F598L, A608V, E742G; SEQ ID NO: 1 (protein)
chain: MRGMLPLFEPKGRVLLVDGHHLAYRTFHALKGLTTSRGEPVQAVYGFAKSLLKALKEDGDAVIVVFDAKAPSFRHEAYGGYKAARAPTPEDFPRQLALIKELVDLLGLARLEVPGYEADDVLASLAKKAEKEGYEVRILTADKGLYQLLSDRIHVLHPEGYLITPAWLWEKYGLRPDQWADYRALTGDESDNLPGVKGIGEKTARKLLEEWGSLEALLKNLDRLKPAIREKILAHMDDLKLSWDLAKVRTDLPLEVDFAKRREPDRERLRAFLERLEFGSLLHEFGLLESPKALEEAPWPPPEGAFVGFVLSRREPMWADLLALAAAAGGRVHRAPEPYKALRDLKEARGLLAKDLSVLALREGLGLPPGDDPMLLAYLLDPSNTTPEGVARRYGGEWTEEAGERAALSERLFANLWGRLEGEERLLWLYREVERPLSAVLAHMEATGVRLDVAYLRALSLEVAEEIARLEAEVFRLAGHPFNLNSRDQLERVLFDELGLPAIGKTEKTGKRSTSAAVLGALREAHPIVEKILQYRELTKLKSTYIDPLPDLIHPRTGRLHTRFNQTATATGRLSSSDPNLQNIPVRTPLGQRIRRAFIAEEGWLLVVLDYSQIELRVLAHLSGDENLIRVFQEGRDIHTETASWMFGVPREAVDPLMRRAAKTINFGVLYGMSAHRLSQELAIPYEEAQAFIERYFQSFPKVRAWIEKTLEEGRRRGYVETLFGRRRYVPDLEARVKSVRGAAERMAFNMPVQGTAADLMKLAMVKLFPRLEEMGARMLLQVHDELVLEAPKERAEAVARLAKEVMEGVYPLAVPLEVEVGIGEDWLSAKE
modifications: Mutant Thermus aquaticus DNA polymerase
Regarding B1, in data set [1], the “bypass of template strand 5NI” value is on record as “efficiently bypass template strand 5NI”. Besides, the “kcat/Km relative to Taq wild type” value in data set [2] is given as 14%.

These data come from US9096835B2, “DNA polymerase” (Medical Research Council, priority 2003, dated 2015).
